Experimental findings from patent US20230203098A1 (published 2023) are described below.

*1 amine or outer side, *2 acyl side, *3 side chain or, on linkers, in order; H or OH if unused. Bridges are numbered along the chain shown (N, C = ends). Primed or numbered codes have the meaning given here. Where no end group is shown, it is not given here. [ ]: non-standard residue; d: D form. Tyr(Me) = COc1ccc(C[C@H](N[*:1])C(=O)[*:2])cc1; NMePhe(3-Cl) = CN[C@@H](Cc1cccc(Cl)c1)C(=O)O; NMeW = CN[C@@H](Cc1c[nH]c2ccccc12)C(=O)O; NMeY = CN[C@@H](Cc1ccc(O)cc1)C(=O)O; PEG11′ = not defined here; Aib = CC(C)(N)C(=O)O

Experiment [1] addresses T1, human transferrin receptor (hTfR) (human, UniProt P02786 89-760, limits assumed).
T1 construct: hTfR solution immobilised on NTA chip (Ni capture plus EDC/NHS); also called human TfR
The experiment in a line: SPR according to Example 2. The protocol:
(§1) For each of the various synthesized peptides, the intermolecular interaction of the peptide with the transferrin receptor (hTfR) was tested by surface plasmon resonance (SPR) according to the following method. The specific test method is as follows.
(§2) An NTA sensor chip (Global Life Sciences Technologies Japan) was inserted in a Biacore T200 (Global Life Sciences Technologies Japan) and a prime operation was performed 3 times with a running buffer: 10 mM HEPES pH 8.0 (Nacalai Tesque), 150 mM NaCl (Nacalai Tesque), 0.05% Tween 20 (Nacalai Tesque), 0.1% BSA (Sigma-Aldrich), 1.0% DMSO (FUJIFILM Wako Pure Chemical) to create an Equilibration state at a flow rate of 30 µL/min. After reacting with 350 mM EDTA solution for 60 seconds at a flow rate of 10 µL/min then reacting with 0.5 mM NiCl₂ solution (Kishida Chemical) for 60 seconds at a flow rate of 10 µL/min, the NTA sensor chip was washed with 3 mM EDTA solution (Nacalai Tesque) for 60 seconds at a flow rate of 10 µL/min. After mixing 50 µL each of 60 mM EDC solution (Global Life Sciences Technologies Japan) and 650 mM NHS solution (Global Life Sciences Technologies Japan), the mixture was reacted for 420 seconds at a flow rate of 10 µL/min. […] An obtained sensorgram was subjected to curve fitting using the least-squares method, and the binding of the peptide to hTfR was evaluated by obtaining KD values.

The target of experiment [2] is T1, human transferrin receptor (hTfR). As to the kind of experiment: SPR, hTfR immobilised. The protocol:
An NTA sensor chip (Global Life Sciences Technologies Japan) was inserted in a Biacore T200 (Global Life Sciences Technologies Japan) and a prime operation was performed 3 times with a running buffer: 10 mM HEPES pH 8.0 (Nacalai Tesque), 150 mM NaCl (Nacalai Tesque), 0.05% Tween 20 (Nacalai Tesque), 0.1% BSA (Sigma-Aldrich), 1.0% DMSO (FUJIFILM Wako Pure Chemical) to create an Equilibration state at a flow rate of 30 µL/min. After reacting with 350 mM EDTA solution for 60 seconds at a flow rate of 10 µL/min then reacting with 0.5 mM NiCl₂ solution (Kishida Chemical) for 60 seconds at a flow rate of 10 µL/min, the NTA sensor chip was washed with 3 mM EDTA solution (Nacalai Tesque) for 60 seconds at a flow rate of 10 µL/min. After mixing 50 µL each of 60 mM EDC solution (Global Life Sciences Technologies Japan) and 650 mM NHS solution (Global Life Sciences Technologies Japan), the mixture was reacted for 420 seconds at a flow rate of 10 µL/min. By diluting with the running buffer, 150 µL of 3.2 µM hTfR solution was prepared and used for reaction for 600 seconds at a flow rate of 10 µL/min, thereby immobilizing hTfR on the NTA sensor chip. […] An obtained sensorgram was subjected to curve fitting using the least-squares method, and the binding of the peptide to hTfR was evaluated by obtaining KD values.

Experiment [3] has the same target. As to the kind of experiment: SPR in accordance with Example 2. The protocol: as §1, §2

T1 sequence (P02786 89-760 limits assumed): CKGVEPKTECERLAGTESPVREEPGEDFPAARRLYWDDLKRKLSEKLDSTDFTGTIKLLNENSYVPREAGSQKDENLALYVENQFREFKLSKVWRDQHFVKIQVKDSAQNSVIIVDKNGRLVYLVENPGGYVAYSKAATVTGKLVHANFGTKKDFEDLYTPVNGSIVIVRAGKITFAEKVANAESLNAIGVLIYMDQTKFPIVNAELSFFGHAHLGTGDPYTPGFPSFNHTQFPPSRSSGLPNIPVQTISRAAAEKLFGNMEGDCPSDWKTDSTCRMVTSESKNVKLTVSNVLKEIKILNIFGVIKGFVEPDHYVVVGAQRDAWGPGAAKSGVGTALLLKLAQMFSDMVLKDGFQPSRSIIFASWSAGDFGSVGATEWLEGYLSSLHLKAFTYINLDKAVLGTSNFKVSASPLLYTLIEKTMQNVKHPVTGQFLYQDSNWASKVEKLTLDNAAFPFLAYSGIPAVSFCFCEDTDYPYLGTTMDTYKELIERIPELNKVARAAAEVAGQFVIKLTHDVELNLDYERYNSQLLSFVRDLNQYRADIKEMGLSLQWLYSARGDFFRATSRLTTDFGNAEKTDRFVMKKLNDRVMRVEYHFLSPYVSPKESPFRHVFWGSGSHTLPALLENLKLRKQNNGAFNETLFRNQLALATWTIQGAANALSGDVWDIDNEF

B1: hTfR_000894_PEG11_(VivoTag) (peptide)
peptide: {CH2CO}-AVFVWNYYIIRRY[NMeY]C
modifications: thioether N-15; not fully specified (C-terminus); also: linker PEG11 in text, PEG12 in table
notes: also called hTfRNo.894-vivotag750; hTfRNo.894-PEG11-Vivotag750
In experiment [1], B1 returned a Kd of 1.09 nM. As to {CH2CO}-A[NMeY]YRRIIYYNWVFVC-{PEG11′-K(FITC)} (thioether N-15) [FLIP_000894_PEG11_K_FITC], in experiment [2], the binding result was “no binding”. With AVFVWNYYIIRRYYC (14 MeTyr; C-term PEG11-K(FITC); cyclic 1-15 thioether) [JCR_hTfR_000894_PEG11_K(FITC)], in experiment [3], the dissociation constant (Kd) was 0.28 nM.

B2: Flip_894_PEG4_KFITC (peptide)
peptide: {CH2CO}-A[NMeY]F[dR][Aib]IY[Tyr(Me)]YN[NMeW]V[NMePhe(3-Cl)]VC
modifications: thioether N-15; not fully specified (C-terminus); also: PEG4c not defined
notes: also called Flip894_variant61_PEG4dk5FAM; Flip894_variant61_PEG4dk5FA
For B2, the binding result in experiment [2] was “no binding”.

B3: hTfRNo.894FLIP-vivotag750 (peptide)
peptide: {CH2CO}-A[NMeY]YRRIIYYNWVFVC-{PEG11′-VivoTag750}
modifications: thioether N-15 (inferred); not fully specified; printed as ClAc-Ala-MeTyr-Tyr-Arg-Arg-Ile-Ile-Tyr-Tyr-Asn-Trp-Val-Phe-Val-Cys
notes: also called hTfRNo.894FLIP-PEG11-Vivotag750
Consider B3, for which, in experiment [1], the binding result is “no binding”.

Broadly, the Kd is a measure of binding affinity in units of concentration. A lower Kd goes with higher affinity.
